Results as given in US20110105394A1 (Novo Nordisk, published 2011).
*1 amine or outer side, *2 acyl side, *3 side chain or, on linkers, in order; H or OH if unused. Bridges are numbered along the chain shown (N, C = ends). Where no end group is shown, it is not given here. The star is where a group is joined. X1 = (S)‑4‑Carboxy‑4‑(17-carboxyheptadecanoylamino)butyryl, O=C(O)CCCCCCCCCCCCCCCCC(=O)N[C@@H](CCC(=O)*)C(=O)O; C20 diacid = O=C(O)CCCCCCCCCCCCCCCCCCC(=O)*; C18 diacid = O=C(O)CCCCCCCCCCCCCCCCC(=O)*; γGlu = O=C(O)[C@H](CCC(=O)[*:2])N[*:1]; AEEA = NCCOCCOCC(=O)O

T1: Amylin 3(a) receptor (human calcitonin receptor (CTa) with RAMP-3) (human, UniProt P30988 25-474; O60896 24-148, limits assumed)
T1 sequence (looked up) 1: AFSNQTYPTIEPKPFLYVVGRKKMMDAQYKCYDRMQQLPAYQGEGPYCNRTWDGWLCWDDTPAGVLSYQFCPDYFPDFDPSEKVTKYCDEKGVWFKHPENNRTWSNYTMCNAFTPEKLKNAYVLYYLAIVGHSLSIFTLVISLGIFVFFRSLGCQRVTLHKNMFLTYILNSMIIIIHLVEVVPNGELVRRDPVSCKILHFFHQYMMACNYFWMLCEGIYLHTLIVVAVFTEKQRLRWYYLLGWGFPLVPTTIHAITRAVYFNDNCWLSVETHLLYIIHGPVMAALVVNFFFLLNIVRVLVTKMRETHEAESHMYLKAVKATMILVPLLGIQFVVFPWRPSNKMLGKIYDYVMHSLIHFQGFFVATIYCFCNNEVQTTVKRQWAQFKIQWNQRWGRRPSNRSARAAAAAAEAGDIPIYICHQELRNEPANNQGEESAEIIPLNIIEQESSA
T1 sequence (looked up) 2: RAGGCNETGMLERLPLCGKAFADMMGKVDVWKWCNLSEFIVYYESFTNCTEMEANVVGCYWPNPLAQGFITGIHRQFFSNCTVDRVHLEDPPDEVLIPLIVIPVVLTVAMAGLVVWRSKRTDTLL

B1: N-alpha-[2-(2-{2-[2-(2-{2-[(S)-4-Carboxy-4-(17-carboxyheptadecanoylamino)butyrylamino]ethoxy}ethoxy)acetylamino]ethoxy}ethoxy)acetyl][His17]-pramlintide (2-37) (peptide)
peptide: {C18 diacid-γGlu-AEEA-AEEA}-CNTATCATQRLANFLHHSSNNFGPILPPTNVGSNTY-NH2
modifications: disulfide 1-6
B2: N-alpha-[(S)-4-Carboxy-4-(5-carboxypentanoylamino)butyryl]-His-His-[His1,His17]-pramlintide (peptide)
peptide: {5‑carboxypentanoyl-γGlu}-HHHCNTATCATQRLANFLHHSSNNFGPILPPTNVGSNTY-NH2
modifications: disulfide 4-9
B3: N-alpha-[2-(2-{2-[2-(2-{2-[(S)-4-Carboxy-4-(19-carboxyheptadecanoylamino)butyrylamino]ethoxy}ethoxy)acetylamino]ethoxy}ethoxy)acetyl]-[His17]-pramlintide (2-37) (peptide)
peptide: CNTATCATQRLANFLHHSSNNFGPILPPTNVGSNTY-NH2
modifications: disulfide 1-6; not fully specified (N-terminus); printed as N-alpha-[2-(2-{2-[2-(2-{2-[(S)-4-Carboxy-4-(19-carboxyheptadecanoylamino)butyrylamino]ethoxy}ethoxy)acetylamino]ethoxy}ethoxy)acetyl]-[His17]-pramlintide (2-37)
B4: N-alpha-[(S)-4-Carboxy-4-(17-carboxyheptadecanoylamino)butyryl]-His-His-[His1,His17]-pramlintide (peptide)
peptide: X1-HHHCNTATCATQRLANFLHHSSNNFGPILPPTNVGSNTY-NH2
modifications: disulfide 4-9
SMILES: CC[C@H](C)[C@H](NC(=O)[C@@H]1CCCN1C(=O)CNC(=O)[C@H](Cc1ccccc1)NC(=O)[C@H](CC(N)=O)NC(=O)[C@H](CC(N)=O)NC(=O)[C@H](CO)NC(=O)[C@H](CO)NC(=O)[C@H](Cc1c[nH]cn1)NC(=O)[C@H](Cc1c[nH]cn1)NC(=O)[C@H](CC(C)C)NC(=O)[C@H](Cc1ccccc1)NC(=O)[C@H](CC(N)=O)NC(=O)[C@H](C)NC(=O)[C@H](CC(C)C)NC(=O)[C@H](CCCNC(=N)N)NC(=O)[C@H](CCC(N)=O)NC(=O)[C@@H](NC(=O)[C@H](C)NC(=O)[C@@H]1CSSC[C@H](NC(=O)[C@H](Cc2c[nH]cn2)NC(=O)[C@H](Cc2c[nH]cn2)NC(=O)[C@H](Cc2c[nH]cn2)NC(=O)CC[C@H](NC(=O)CCCCCCCCCCCCCCCCC(=O)O)C(=O)O)C(=O)N[C@@H](CC(N)=O)C(=O)N[C@@H]([C@@H](C)O)C(=O)N[C@@H](C)C(=O)N[C@@H]([C@@H](C)O)C(=O)N1)[C@@H](C)O)C(=O)N[C@@H](CC(C)C)C(=O)N1CCC[C@H]1C(=O)N1CCC[C@H]1C(=O)N[C@H](C(=O)N[C@@H](CC(N)=O)C(=O)N[C@H](C(=O)NCC(=O)N[C@@H](CO)C(=O)N[C@@H](CC(N)=O)C(=O)N[C@H](C(=O)N[C@@H](Cc1ccc(O)cc1)C(N)=O)[C@@H](C)O)C(C)C)[C@@H](C)O
B5: N-alpha-[2-(2-{2-[4-(S)-Carboxy-4-(19-carboxynonadecanoylamino)butyrylamino]ethoxy}ethoxy)acetyl]-His-His-[Arg1,Arg17,Gln21]-pramlintide (peptide)
peptide: {C20 diacid-γGlu-AEEA}-HHRCNTATCATQRLANFLRHSSQNFGPILPPTNVGSNTY-NH2
modifications: disulfide 4-9
SMILES: CC[C@H](C)[C@H](NC(=O)[C@@H]1CCCN1C(=O)CNC(=O)[C@H](Cc1ccccc1)NC(=O)[C@H](CC(N)=O)NC(=O)[C@H](CCC(N)=O)NC(=O)[C@H](CO)NC(=O)[C@H](CO)NC(=O)[C@H](Cc1c[nH]cn1)NC(=O)[C@H](CCCNC(=N)N)NC(=O)[C@H](CC(C)C)NC(=O)[C@H](Cc1ccccc1)NC(=O)[C@H](CC(N)=O)NC(=O)[C@H](C)NC(=O)[C@H](CC(C)C)NC(=O)[C@H](CCCNC(=N)N)NC(=O)[C@H](CCC(N)=O)NC(=O)[C@@H](NC(=O)[C@H](C)NC(=O)[C@@H]1CSSC[C@H](NC(=O)[C@H](CCCNC(=N)N)NC(=O)[C@H](Cc2c[nH]cn2)NC(=O)[C@H](Cc2c[nH]cn2)NC(=O)COCCOCCNC(=O)CC[C@H](NC(=O)CCCCCCCCCCCCCCCCCCC(=O)O)C(=O)O)C(=O)N[C@@H](CC(N)=O)C(=O)N[C@@H]([C@@H](C)O)C(=O)N[C@@H](C)C(=O)N[C@@H]([C@@H](C)O)C(=O)N1)[C@@H](C)O)C(=O)N[C@@H](CC(C)C)C(=O)N1CCC[C@H]1C(=O)N1CCC[C@H]1C(=O)N[C@H](C(=O)N[C@@H](CC(N)=O)C(=O)N[C@H](C(=O)NCC(=O)N[C@@H](CO)C(=O)N[C@@H](CC(N)=O)C(=O)N[C@H](C(=O)N[C@@H](Cc1ccc(O)cc1)C(N)=O)[C@@H](C)O)C(C)C)[C@@H](C)O
B6: N-alpha-[(S)-4-Carboxy-4-(19-carboxynonadecanoylamino)butyryl]-[Arg1,His17]-pramlintide (peptide)
peptide: {C20 diacid-γGlu}-RCNTATCATQRLANFLHHSSNNFGPILPPTNVGSNTY-NH2
modifications: disulfide 2-7
SMILES: CC[C@H](C)[C@H](NC(=O)[C@@H]1CCCN1C(=O)CNC(=O)[C@H](Cc1ccccc1)NC(=O)[C@H](CC(N)=O)NC(=O)[C@H](CC(N)=O)NC(=O)[C@H](CO)NC(=O)[C@H](CO)NC(=O)[C@H](Cc1c[nH]cn1)NC(=O)[C@H](Cc1c[nH]cn1)NC(=O)[C@H](CC(C)C)NC(=O)[C@H](Cc1ccccc1)NC(=O)[C@H](CC(N)=O)NC(=O)[C@H](C)NC(=O)[C@H](CC(C)C)NC(=O)[C@H](CCCNC(=N)N)NC(=O)[C@H](CCC(N)=O)NC(=O)[C@@H](NC(=O)[C@H](C)NC(=O)[C@@H]1CSSC[C@H](NC(=O)[C@H](CCCNC(=N)N)NC(=O)CC[C@H](NC(=O)CCCCCCCCCCCCCCCCCCC(=O)O)C(=O)O)C(=O)N[C@@H](CC(N)=O)C(=O)N[C@@H]([C@@H](C)O)C(=O)N[C@@H](C)C(=O)N[C@@H]([C@@H](C)O)C(=O)N1)[C@@H](C)O)C(=O)N[C@@H](CC(C)C)C(=O)N1CCC[C@H]1C(=O)N1CCC[C@H]1C(=O)N[C@H](C(=O)N[C@@H](CC(N)=O)C(=O)N[C@H](C(=O)NCC(=O)N[C@@H](CO)C(=O)N[C@@H](CC(N)=O)C(=O)N[C@H](C(=O)N[C@@H](Cc1ccc(O)cc1)C(N)=O)[C@@H](C)O)C(C)C)[C@@H](C)O
B7: N-alpha-[2-(2-{2-[4-(S)-Carboxy-4-(19-carboxynonadecanoylamino)butyrylamino]ethoxy}ethoxy)acetyl]-His-His-[Arg1His17,Gln21]-pramlintide (peptide)
peptide: {C20 diacid-γGlu-AEEA}-HHRCNTATCATQRLANFLHHSSQNFGPILPPTNVGSNTY-NH2
modifications: disulfide 4-9
SMILES: CC[C@H](C)[C@H](NC(=O)[C@@H]1CCCN1C(=O)CNC(=O)[C@H](Cc1ccccc1)NC(=O)[C@H](CC(N)=O)NC(=O)[C@H](CCC(N)=O)NC(=O)[C@H](CO)NC(=O)[C@H](CO)NC(=O)[C@H](Cc1c[nH]cn1)NC(=O)[C@H](Cc1c[nH]cn1)NC(=O)[C@H](CC(C)C)NC(=O)[C@H](Cc1ccccc1)NC(=O)[C@H](CC(N)=O)NC(=O)[C@H](C)NC(=O)[C@H](CC(C)C)NC(=O)[C@H](CCCNC(=N)N)NC(=O)[C@H](CCC(N)=O)NC(=O)[C@@H](NC(=O)[C@H](C)NC(=O)[C@@H]1CSSC[C@H](NC(=O)[C@H](CCCNC(=N)N)NC(=O)[C@H](Cc2c[nH]cn2)NC(=O)[C@H](Cc2c[nH]cn2)NC(=O)COCCOCCNC(=O)CC[C@H](NC(=O)CCCCCCCCCCCCCCCCCCC(=O)O)C(=O)O)C(=O)N[C@@H](CC(N)=O)C(=O)N[C@@H]([C@@H](C)O)C(=O)N[C@@H](C)C(=O)N[C@@H]([C@@H](C)O)C(=O)N1)[C@@H](C)O)C(=O)N[C@@H](CC(C)C)C(=O)N1CCC[C@H]1C(=O)N1CCC[C@H]1C(=O)N[C@H](C(=O)N[C@@H](CC(N)=O)C(=O)N[C@H](C(=O)NCC(=O)N[C@@H](CO)C(=O)N[C@@H](CC(N)=O)C(=O)N[C@H](C(=O)N[C@@H](Cc1ccc(O)cc1)C(N)=O)[C@@H](C)O)C(C)C)[C@@H](C)O
B8: N-alpha-[2-(2-{2-[4-(S)-Carboxy-4-(19-carboxynonadecanoylamino)butyrylamino]ethoxy}ethoxy)acetyl]-His-His-[Arg1,Arg17]-pramlintide (peptide)
peptide: {C20 diacid-γGlu-AEEA}-HHRCNTATCATQRLANFLRHSSNNFGPILPPTNVGSNTY-NH2
modifications: disulfide 4-9
SMILES: CC[C@H](C)[C@H](NC(=O)[C@@H]1CCCN1C(=O)CNC(=O)[C@H](Cc1ccccc1)NC(=O)[C@H](CC(N)=O)NC(=O)[C@H](CC(N)=O)NC(=O)[C@H](CO)NC(=O)[C@H](CO)NC(=O)[C@H](Cc1c[nH]cn1)NC(=O)[C@H](CCCNC(=N)N)NC(=O)[C@H](CC(C)C)NC(=O)[C@H](Cc1ccccc1)NC(=O)[C@H](CC(N)=O)NC(=O)[C@H](C)NC(=O)[C@H](CC(C)C)NC(=O)[C@H](CCCNC(=N)N)NC(=O)[C@H](CCC(N)=O)NC(=O)[C@@H](NC(=O)[C@H](C)NC(=O)[C@@H]1CSSC[C@H](NC(=O)[C@H](CCCNC(=N)N)NC(=O)[C@H](Cc2c[nH]cn2)NC(=O)[C@H](Cc2c[nH]cn2)NC(=O)COCCOCCNC(=O)CC[C@H](NC(=O)CCCCCCCCCCCCCCCCCCC(=O)O)C(=O)O)C(=O)N[C@@H](CC(N)=O)C(=O)N[C@@H]([C@@H](C)O)C(=O)N[C@@H](C)C(=O)N[C@@H]([C@@H](C)O)C(=O)N1)[C@@H](C)O)C(=O)N[C@@H](CC(C)C)C(=O)N1CCC[C@H]1C(=O)N1CCC[C@H]1C(=O)N[C@H](C(=O)N[C@@H](CC(N)=O)C(=O)N[C@H](C(=O)NCC(=O)N[C@@H](CO)C(=O)N[C@@H](CC(N)=O)C(=O)N[C@H](C(=O)N[C@@H](Cc1ccc(O)cc1)C(N)=O)[C@@H](C)O)C(C)C)[C@@H](C)O

Molecular target: T1, Amylin 3(a) receptor (human calcitonin …)
Experiment: cell-based or functional assay

Potency Luciferase | Binder
0.04 nM | B1
0.04 nM | B2
0.07 nM | B3
0.05 nM | B4
0.1 nM | B5
0.3 nM | B6
0.06 nM | B7
0.3 nM | B8
